Data on two proteins can be found in publication PMC4485890, “Structural Basis for the Specificity of Human NUDT16 and Its Regulation by Inosine Monophosphate” (PLoS ONE, 2015).

For orientation: stoichiometry N means a count of units in the complex or per binding partner.

Changes are numbered by the printed parent chain. Numbers in names are those of the source.

Series [1] deals with the molecule itself. Kind of series: crystal structure; apo form (1.80 Å) and IMP/Mg2+-bound form (1.72 Å), space group F23; one monomer in the asymmetric unit, dimer with a symmetry-related molecule.
Series [2] concerns the molecule itself. Put plainly: SEC; analytical gel filtration of NUDT16 wild-type against standard proteins; protocol in S1 Text. Background: Size exclusion chromatography separates by hydrodynamic size, large species first.

B1: human NUDT16 A22V (construct used for crystallography) (enzyme, UniProt Q96DE0 1-195, looked up)
chain: MAGARRLELGEALALGSGWRHVCHALLYAPDPGMLFGRIPLRYAILMQMRFDGRLGFPGGFVDTQDRSLEDGLNRELREELGEAAAAFRVERTDYRSSHVGSGPRVVAHFYAKRLTLEELLAVEAGATRAKDHGLEVLGLVRVPLYTLRDGVGGLPTFLENSFIGSAREQLLEALQDLGLLQSGSISGLKIPAHH
notes: human NUDT16, full length, from MGC cDNA BC031215, which carries a mutation that replaces Ala22 by Val; A22V was already in the purchased cDNA and was not introduced by the authors; A TEV protease site follows the His6 tag; no cleavage is described for the crystallography sample; One monomer lies in the asymmetric unit and the dimer is formed by crystallographic symmetry; also called apo-NUDT16; …
For B1, the binding result in series [1] is “binds”.

B2: human NUDT16 wild-type (sample for analytical gel filtration) (enzyme, UniProt Q96DE0 1-195, looked up)
chain: B1 chain with V22A
notes: human NUDT16 wild-type (Ala22); expression and purification for gel filtration are described only in S1 Text
As to B2, the “stoichiometry N” value in series [2] was found to be 2.
